Measurements taken from the NTF2 design screens of Basanta et al. (2020).

Experiment: protease stability score; higher = more stable; yeast display proteolysis, trypsin and chymotrypsin;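 note: log10 excess protease needed over predicted unfolded state with 0 meaning unfolded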
“DKDAVKRFEELLRALDTNNSEQVKDLLDKNVQFRVGDKVIHGMEEAVRRQIQHNNEIRVEKEIKSIDDHNGRIHVDMTREWEHNGQPRSEKVKFTIEMHNGRVQVDNQKVTS” gave a protease stability score of -0.098. For “DKDDFKEAEHILRTGDPDEWSKMVDPNARAEVGDEEIHGKEEFDRWMQKKKKRVDHEQVKSVDFHGDKWRVVLVFNVNGRQADVVMVMQVHNGRLVYQVVRFRDHQVKDVVRKRLS”, the protease stability score was 0.336. For “DKDDLRRMHQLVTRNNPQKFKQQADKDAKVQYGDKTVTGMTDAARQMVKFWRQADHIEVKHVDVNGDKLNVVMRMNVNGRNLHMVVYYVVSNGHVRSASVTFTDPHQQEEFEKNAS”, the protease stability score was 0.316. “DKDDQKRFTDTATKILQHNNPEKMRELADKDARLVVGDRTYTGRRQIVRHMEHLFRRVDHVQIKHVDVRGDHVEIDAVLDYNGRKERMTFVFQAHNGRIKQVEVQTG” showed a protease stability score of 0.603. With “DKDERHRIAHRLNEAIRTGDPHQMLRLADKNVKVQIGEKDVRGKDAIDKYARDLRKKVDHIQLRSLDVQGEEITMTIVFNVNGRRETVVYHVDYHNGQVKRVMVRSK” the protease stability score was 0.043. “DKDLIERDKQWWTAVRHNNPDRLSENVDENASVRIGDKEVHGRKDISRLIKHLRDTMHESYKIERVNKEEGRANIQASATRDHNGRPRTARVQVIVEAHNGRIKRIQVQFNS” gave a protease stability score of -0.336. For “DKDTEQHFADSMNQIIEQGNPKKAMKLADKDVQMQIGDKTYKGREEMMKQIKRFWKHVDEIRVKDVKVNDGQININVILDFNGKKVEVRIVIHVHNGKIHELRVDPKDKEQFEK”, the protease stability score was 1.09. “DKEALDEIEKAARENDWEKLAKMADPNVTATIGNYRVHGRSQFEKWARRVRQEVDHIEVKSIDVHGEKARVNYVIVFNGHNVTAQVQIEAHNGHITYMEVDYTDEDQVRHVKDMLS” showed a protease stability score of 1.6. In the case of “DKEALRVFEKMLQAQRTGNPQEVRKQVDENARFQVGDKTIQGRERFAEDVDRQRKNMRLDYKHIDNKDHNGQAQADAKVRVNVNGRPIEHSAQFHFSAHNGKLVQLHVQMDEDVRRQIEK”, the protease stability score is reported as -0.233. “DKEASDHATRIAQTNNPQKAVDKADPDVKATYGNKVYNGKNQARDVAKQFDEHFDRVEVKSVDNDGETVRADVRARFNGKTMEFTFVIVMSNGHVKMLFIDVRNPEDQEDLDRLLT” showed a protease stability score of -0.188. Sequence “DKEAVNIATRYMKAWEQGDSDTLMKLMDEDVRVHYGDKVLEGREDVSRDLKRLLDHAQFEIKHVTNKDNGSVVIVNFHMIVNVNGEPVEVKVVVHFHMHNGRIKQIVIRIDPKQLRQIKG” has a protease stability score of 1.41. Sequence “DKEDAEKVMKTMMKVVEKGDPEQLMKVGSEGVEYQAGDLKAHGPEALKQVMDYLQKHGVRLEIKHAEVEGNTVRTYVEYKNGEETDTVEANADVDGGKIDRVEVEVGERAEKWLKHG” has a protease stability score of -0.57. With “DKEDVDHLERIMRKGDWDQLKDHADKDVTVVVGDRNIHGREKANNFLKRFKERVDHQEVRRLDVSGNEVVVDMVFNVNGRKIRATVVAVAHNGRLKEVVMRFTSEDDKRRATEAFD” the protease stability score was 0.454. In the case of “DKEDVKKRAEELAEVLQTGDPRKMRDLADKDARLSIGDKEYHGREEISKWVDHMRRDVDHFKLDDVQASGNKMRLTFVLQHNGRRSKFDLDVKYSNGRAKELRFDRK”, the protease stability score is reported as 0.267. In the case of “DKEDWTRLTNVLEDNNEHQFQDMLDKDVKIDVGDKRIHGRERAKHFLRKYEREVDEITVYSINVSGDNVKVDRVAKHNGQSVRFVMVFRAHNGKVQEMRIEFRDERQKEIWNQLEQ”, the protease stability score is reported as 0.231. “DKEEAKKILDKAVKAVENGNLEELKQMGKEGVEYELIDKKAHGPEVVHKVMEKLQRHGAELEFKRVQVEGDTVHTVVDYRVGDTEMRATAEATVQGGRIDKVRIEMSEEAQKTIKHG” gave a protease stability score of -0.272. In the case of “DKEEAQKVAEQMVKAIKNGNLDELADAGDDGVDYQVGDEKKRGREDIKRHVEKLQKAGVEMEVKEVRVEGNEVETKLTYKIGNTEVTVKVTVEVEGGKINRVEVRMSEEVEKTVRHG”, the protease stability score is reported as -0.193. “DKEEARKVLEELIKAVESGNPKDLKKYGKDGVKYRLGDREAHGPEAVYKQFEQIHRQGVELRFEDTKVEGDKVTTRVTYRNGDETYTVQIHAEVRGGKIDRVEADLSDKAKEVVKHG” showed a protease stability score of -0.066. “DKEEFEKTAKTFMKVWTNGDPDQWKELMDPNARLQIGDKEWHGREEVREAITQFHDRVDHIEVKDLKVTEDHVRLIAVVRFNGREVKVTVNIHFENGRATHVENHFTDDDQLKRNLS” showed a protease stability score of -0.084. Sequence “DKEELQHLIRLEEHNDWDKFARQAPPNATLQVGDRVVHGREEAVKFAEKLKKRVDHISIESIDRRGEKLQIVYTMVVDGKRVKAVVVLRASNGRAQSVVFQARDPHDQQVIKENLS” has a protease stability score of 0.178. Sequence “DKEELSWAKKVLEKNNWESLAENADENAKVDVGDKRYSGREQVEHLMNQLRRRVDHVEYKHIDSKGDKLVADFQVVVNGREVKVRLQMNVHNGRVRHLTMEARNEDDKRFLKEMLD” has a protease stability score of 1.3. Work on “DKEENHMFQQAFTVEWTGDPEKVNRLMDPNAKIEVGEKRVHGMDKYAREVKREHDDMRVDVRTYSNDVHNGEVDVKVNYVKNNNGRPRHVSQSIRAHASNGKVKSVQVTERG” yielded a protease stability score of -0.299. Sequence “DKEEVEKIAREALEAAVKGDEDKLKTYLGPDVKYVLGDQEYQGQQVAELVMKLIKKDGARLQLETLKVEGNTVQAQYQFHVDGVTRKAHITMKVKGGRVDEWQVHIDDHAKEALKKG” has a protease stability score of 1.28. “DKEEVHKLKHLLRHGDFEKINKKADKDARMQIGDRVYHGREKMKKALEILQREVDDIRVDSIKVSGDRVSAEMHMEVNGRRYVFVVVIRATNGRVVSLKVKARSESQDEHLKNLVE” gave a protease stability score of 0.625. Work on “DKEEVQRIVEEMLKFVESGDIKKLVDHGKEGVRYRLGDEEAHGPEAIKKMVVKMKKVGLRIEVKEYQVEGDTATTKLKYQLGDTEDTVEVNAQAQGGRIDQVNADVDKTAVDMIKQG” yielded a protease stability score of 0.048. For “DKEHLKRMVETIIKILETGDPDKMKNLADENVRVEVGDKDVHGKDTLRKHIEEWRRQIDHLEVKSVRVKGNKASIHFVVRVNGTDKTVVVVFDIHNGKIKMVHYTDS”, the protease stability score was 0.637. Work on “DKEIKDLARQVLTAEKTGDPEQFKKLFDPNVHVEVGDKTVTGREEASREFKKSQQELRIDMKSVSVTVEGNSVDIEIHAHLKVNGRPIDMHFRIILTFHNGKVHHVQLQVSEDQLRKMSQ” yielded a protease stability score of 0.668. In the case of “DKEILDLVNEFLKAQRDNDPDRVSELADPNVKVHYGDKQIRGREEVNKQVEKEQKEIQVDFRIKHVTVENGRADLNFRYHANVNGQPISFDARIEMQFHNGRLKRLVLRMPEEAVKTMDS”, the protease stability score is reported as 0.118. For “DKEKEADQQVRTADEIYQTGNPEEAKKLADPNVDVRIGDKEYHGDRELAQIIVEKRERVDSLVFHVERINVHPGRFQLNVVLTLKHNGKHETKKEEFVMTKRNGQLRVVHMRDQ”, the protease stability score was 0.056. Sequence “DKEKEAKKAIDKMITAIQHNDEDRAREMADPNVRIKYGDKQYHGRETMEDWIRTLRNSYDHLDIKLTDMKTDGDKIHIIIQYEADHNGQRTRDRVDLTMRRDNGRVKLVSAKEQ” has a protease stability score of 0.232. “DKELQDTAHKLAKNGDFSRLAELADEDVQIKIGDERVTGREEQKKLVEVQQRRIDHVEVDRVHAQGNKVSVNMTIVVDGESRTVNIDITMHNGRVKEIVYNATSEEARKEMTKWYR” showed a protease stability score of -0.362. For “DKELRHSWEDQLRAEEEGDENRLRELIDPNASFVVGDKSIHGREQFADDMRRKLTEMRVEIKSYSVHAHNGHLDIKVHRRVNHDGEPKEDTYRADVQADNGRIVRVTIQSDG”, the protease stability score was -0.652. “DKELRKHLTEFVKNYQHGNERELNKYADPNVKFRYGDKTLNGREEWMKHIQRLKKEIRFEIDDFRIRARNGELDMTFDFKQEVNGRPKSDRAQMNVVMHNGKIVEIDFRVDPTFEKEVKG” showed a protease stability score of 0.376. For “DKELWEWFRRWLENYRTGNHNNIREMADPNVRMVVGDKHISGREHYAEEVSRQVHKLRVSLDFKDYDLRPNRVNVDAVIRMTSDGEPDQSKWSQTLQFSNGRLHQANVTMNQ”, the protease stability score was 0.192. For “DKEMASVVERWLDALQRNDPDQANNNADKDATFDVGDKKVKGRDTLKKLVEDLRREMRFNITSMSITVHGDKVVVTYRVSMQHDGQPMQHRYFLHAQDKNGHIHNLHVQKSD”, the protease stability score was 0.44. Sequence “DKENLETLHELMTALERGDEQKVADEIDPNAKLQYGDKEIHGRKQAHRFIKTVKDQQRFHIQVKDLKVKGDTMDLRAEVEFQHNGHPDSDVIVVNARAHNGHISTLTVTKDD” has a protease stability score of -0.223.
